Test results published in paper PMC4270787 (PLoS ONE, 2014).

B1: PLA2 Vur-PL2 from V. ursinii venom (enzyme)
chain: NLYQFGKMIRYKTGKSALLSYSDYGCYCGWGGQGKPKDATDRCCFVHDCCYGRVNGCDPKLTIYSYSFENGDIVCGGDDSCKRAVCECDRVAAICFGENLNTYDKKYKNYPSSQCTETEQC
B2: PLA2 CM-II from N. kaouthia venom (enzyme)
chain: NLYQFKNMIQCTVPNRSWWDFADYGCYCGRGGSGTPVDDLDRCCQVHDNCYNEAEKISRCWPYFKTYSYECSQGTLTCKGDNDACAAAVCDCDRLAAICFAGAPYNNNNYNIDLKARCQ
B3: PLA2 vurtoxin from V. ursinii venom (enzyme)
chain: SLLEFGMMILEETGKNPLTSYSFYGCYCGVGGKGTPKDATDRCCFVHDCCYGNLPDCNPKIDRYKYHRKNGAIVCGKGTSCENRICECDRAAAICFRKNLKTYNHIYKYYPDFLCKKESEKC

Assays:
Test in all cases: radioligand binding
[1] = target: acetylcholine-binding protein from Aplysia californica (A. californica)
[2] = target: T1, T. californica muscle-type nicotinic acetylcholine receptor (T. californica, UniProt P02710 25-461; P02712 25-493; P02714 18-506; P02718 22-522); conditions: one partner purified
T1 construct: also called T. californica nAChR; Torpedo nAChR

[3] = target: T2, human neuronal α7 nicotinic acetylcholine receptor (human, UniProt P36544 23-502); conditions: one partner purified
T2 construct: also called human α7 nAChR; α7 nAChR

[4] = target: T3, acetylcholine-binding protein from L. stagnalis (L. stagnalis, UniProt P58154 20-229); conditions: both partners purified
T3 construct: also called L. stagnalis AChBP

Molecule | IC50 [1] | IC50 [2] | IC50 [3] | IC50 [4]
PLA2 vurtoxin from V. ursinii venom (from UniProt F8QN54 17-138) (enzyme) | > 30 µM |  |  | 
PLA2 CM-II from N. kaouthia venom (from UniProt P00596 28-146) (enzyme) | > 100 µM |  |  | 
B1 |  | > 100 µM | 29 ± 2 µM | > 30 µM
B2 |  | 1.2 ± 0.1 µM | 3.2 ± 0.3 µM | 1 ± 0.03 µM
B3 |  | 0.26 ± 0.02 µM | 14 ± 5 µM | > 30 µM
